Source: patent publication US20220056134A1 (Genentech, published 2022)
Positions count from the first letter of the chain named. Names may count otherwise. Values belong to the molecule of their own block, whether it stands above or below them.

Assays:
[1] = target: HER2-ECD (in house) (UniProt P04626); assay: SPR (refers to Table G3)
[2] = target: HER2-ECD (in house) (UniProt P04626); assay: SPR (BIAcore T200), Fab captured on anti-Fab chip, HER2-ECD as analyte, 25 C, 1:1 model
[3] = target: T1, IL-13 (in-house) (UniProt P35225 35-146, limits assumed); assay: SPR (BIAcore T200), Fab captured on anti-Fab chip, IL-13 as analyte, 25 C, 1:1 model
T1 construct: SPR analyte

[4] = target: T1, IL-13 (in-house); assay: SPR (BIAcore T200), Fab captured on anti-Fab chip, IL-13 as analyte; n.d. = binding was not detected
[5] = target: T1, IL-13 (in-house); assay: SPR
[6] = target: T2, MET-R Fc (R&D Systems, catalog number 8614-MT) (UniProt P08581 25-932); assay: SPR (BIAcore T200), Fab captured on anti-Fab chip, MET-R Fc as analyte, 25 C, 1:1 model
T2 construct: Bought reagent used as SPR analyte; not shown: Fc part of the bought fusion protein

[7] = target: T2, MET-R Fc (R&D Systems, catalog number …); assay: SPR (BIAcore T200), Fab captured on anti-Fab chip, MET-R Fc as analyte; n.d. = binding was not detected

fold change of KD against the unmodified parent [1]: 30 fold
Kd [2]: 36.5 nM
koff [2]: 0.00294 s⁻¹
kon [2]: 80000 M⁻¹ s⁻¹
Molecule: anti-HER2 Fab variant CDR H3 W95D

Kd [3]: 0.05 nM
koff [3]: 5e-05 s⁻¹
kon [3]: 1.17e+06 M⁻¹ s⁻¹
B1: Parental anti-IL-13 Fab (lebrikizumab) (Fab, V domains shown)
VH: EVTLRESGPALVKPTQTLTLTCTVSGFSLSAYSVNWIRQPPGKALEWLAMIWGDGKIVYNSALKSRLTISKDTSKNQVVLTMTNMDPVDTATYYCAGDGYYPYAMDNWGQGSLVTVSS
VL: DIVLTQSPDSLSVSLGERATINCRASKSVDSYGNSFMHWYQQKPGQPPKLLIYLASNLESGVPDRFSGSGSGTDFTLTISSLQAEDVAVYYCQQNNEDPRTFGGGTKVEIK
notes: Tested as Fab

Kd [3]: 0.02 nM
koff [3]: 3e-05 s⁻¹
kon [3]: 1.24e+06 M⁻¹ s⁻¹
B2: anti-IL-13 Fab variant CDR L3 D94A (Fab, V domains shown)
VH: B1 VH
VL: B1 VL with D98A
notes: Fab; variable domains only; Kabat numbering

B3: anti-IL-13 Fab variant CDR H3 D95A:P99A (Fab, name in Kabat numbering, V domains shown)
VH: B1 VH with D98A, P102A
VL: B1 VL
notes: as for B2
binding result [4]: no binding (tested: analyte up to 20 mM as printed)

Kd [3]: 1.3 nM
koff [3]: 0.00111 s⁻¹
kon [3]: 882000 M⁻¹ s⁻¹
B4: anti-IL-13 Fab variant CDR H3 D95A (Fab, name in Kabat numbering, V domains shown)
VH: B1 VH with D98A
VL: B1 VL
notes: as for B2

Kd [3]: 0.03 nM
koff [3]: 3e-05 s⁻¹
kon [3]: 1.03e+06 M⁻¹ s⁻¹
B5: anti-IL-13 Fab variant CDR L3 N92A (Fab, V domains shown)
VH: B1 VH
VL: B1 VL with N96A
notes: as for B2

fold loss in binding affinity against the parental anti-IL-13 Fab [5]: ~10 fold
Kd [3]: 0.5 nM
koff [3]: 0.00044 s⁻¹
kon [3]: 825000 M⁻¹ s⁻¹
B6: anti-IL-13 Fab variant CDR L3 R96A (Fab, V domains shown)
VH: B1 VH
VL: B1 VL with R100A
notes: as for B2

fold loss in binding affinity against the parental anti-IL-13 Fab [5]: ~10 fold
Kd [3]: 0.7 nM
koff [3]: 0.00037 s⁻¹
kon [3]: 528000 M⁻¹ s⁻¹
B7: anti-IL-13 Fab variant CDR L3 D94A:R96A (Fab, V domains shown)
VH: B1 VH
VL: B1 VL with D98A, R100A
notes: Fab; variable domains only; Kabat numbering; also called D94: R96A double substitution

Kd [3]: 1.8 nM
koff [3]: 0.00269 s⁻¹
kon [3]: 1.5e+06 M⁻¹ s⁻¹
B8: anti-IL-13 Fab variant CDR H3 P99A (Fab, name in Kabat numbering, V domains shown)
VH: B1 VH with P102A
VL: B1 VL
notes: as for B2

Kd [6]: < 0.05 nM
koff [6]: < 1e-05 s⁻¹
kon [6]: 179000 M⁻¹ s⁻¹
B9: Parental anti-MET Fab (onartuzumab / 5D5) (Fab, V domains shown)
VH: EVQLVESGGGLVQPGGSLRLSCAASGYTFTSYWLHWVRQAPGKGLEWVGMIDPSNSDTRFNPNFKDRFTISADTSKNTAYLQMNSLRAEDTAVYYCATYRSYVTPLDYWGQGTLVTVSS
VL: DIQMTQSPSSLSASVGDRVTITCKSSQSLLYTSSQKNYLAWYQQKPGKAPKLLIYWASTRESGVPSRFSGSGSGTDFTLTISSLQPEDFATYYCQQYYAYPWTFGQGTKVEIK
notes: Tested as Fab

Kd [6]: < 0.06 nM
koff [6]: < 1e-05 s⁻¹
kon [6]: 153000 M⁻¹ s⁻¹
B10: anti-MET Fab variant CDR L3 P95A (Fab, V domains shown)
VH: B9 VH
VL: B9 VL with P101A
notes: as for B2

Kd [6]: 1.1 nM
koff [6]: 0.00019 s⁻¹
kon [6]: 172000 M⁻¹ s⁻¹
B11: anti-MET Fab variant CDR L3 Y92A (Fab, V domains shown)
VH: B9 VH
VL: B9 VL with Y98A
notes: as for B2

Kd [6]: 5.7 nM
koff [6]: 0.00065 s⁻¹
kon [6]: 115000 M⁻¹ s⁻¹
B12: anti-MET Fab variant CDR L3 Y94A (Fab, V domains shown)
VH: B9 VH
VL: B9 VL with Y100A
notes: as for B2

binding result [7]: no binding (tested: analyte up to 75 nM)
B13: anti-MET Fab variant CDR L3 Y91A:W96A (Fab, V domains shown)
VH: B9 VH
VL: B9 VL with Y97A, W102A
notes: as for B2

binding result [7]: no binding (tested: analyte up to 75 nM)
B14: anti-MET Fab variant CDR L3 Y91A:Y94A (Fab, V domains shown)
VH: B9 VH
VL: B9 VL with Y97A, Y100A
notes: as for B2

Kd [6]: 2.1 nM
koff [6]: 0.00017 s⁻¹
kon [6]: 84000 M⁻¹ s⁻¹
B15: anti-MET Fab variant CDR L3 W96A (Fab, V domains shown)
VH: B9 VH
VL: B9 VL with W102A
notes: as for B2

Kd [6]: 0.8 nM
koff [6]: 6e-05 s⁻¹
kon [6]: 70000 M⁻¹ s⁻¹
B16: anti-MET Fab variant CDR L3 Y91A (Fab, V domains shown)
VH: B9 VH
VL: B9 VL with Y97A
notes: Fab; variable domains only
